The results in this text go back to US8440629B2, “Cyclic receptor-associated protein (RAP) peptides” (Raptor Pharmaceuticals Inc., priority 2007, dated 2013).

Assay [1] addresses T1, MAT CR23 (Homo sapiens, UniProt Q9Y5Y6).
T1 construct: made in house; host or cells: E. coli BL21(DE3) CodonPlus-RIPL, pET30(+)a
T1 sequence (Q9Y5Y6 487-566): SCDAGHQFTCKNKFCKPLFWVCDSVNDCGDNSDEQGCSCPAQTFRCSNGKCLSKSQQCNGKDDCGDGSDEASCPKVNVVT
The assay can be described thus: Binding of sequentially-truncated MatRAP1 (FIG. 9). On the procedure:
Purified, refolded CR protein (1 μg) was bound to Nunc Maxisorp™ 96-well plates in TBS pH 8 supplemented with 5 mM CaCl2 (TBSC) overnight at 4° C. Wells were washed with TBSC and then blocked with TBSC containing 2% bovine serum albumin (BSA). RAP ligands were then incubated with the immobilized receptor at a range of concentrations for 2 hours in the above blocking buffer supplemented with 0.05% Tween-20 at room temperature. Control wells contained no added ligand. As an additional control, to determine whether the absence of calcium affected binding, 10 mM EGTA was included in the incubation medium for some samples. Wells were washed with TBSTC and bound ligands detected with polyclonal anti-RAP (BP41/42, 1:1,000, BioMarin). Excess primary antibody was removed and wells washed before incubation with the secondary antibody, HRP-conjugated goat anti rabbit IgG (Bio-Rad). After washing, TMB substrate solutions (Bio-Rad) were added to detect HRP. Color development was stopped with 1N HCl. Absorption at 450 nm was measured with a microplate spectrophotometer (Molecular Devices). Data were plotted and Kd values derived by non-linear regression with the assumption of single-site binding (GraphPad Prism). […]

In assay [2] the test system is LRP-deficient CHO-K1 cells. In words: Endocytosis-dependent toxicity assay (MTT). The note with it: 100 nM, 48 hours. It is filed as cell-based, Chinese hamster. The procedure: (§1) In order to determine the ability of the cyclic RAP peptides to bind receptor on the surface of a cell, binding was assessed in the presence of cultured cell lines. To determine whether cyclic RAP peptides could be bound and endocytosed by full-length LRP1 expressed on cells in culture, an endocytosis-dependent toxicity assay was used. Two cell-lines were used, Chinese hamster ovary CHO-K1 cells expressing only one high-affinity RAP-receptor, LRP1, and a mutant CHO-K1 lacking LRP1 expression was used as control. Cells were cultured in BioWhittaker UltraCHO medium (Lonza, Basel, Switzerland) supplemented with 2.5% fetal bovine serum. Cells were seeded in 12-well tissue culture plates. The biotinylated mRAPc was combined with equimolar amounts of a conjugate between streptavidin and the bacterial toxin saporin (ZAP, Advanced Targeting Systems, San Diego, Calif.). The mixture was diluted in MEM without phenol red (Mediatech, Manassas, Va.) supplemented with 10% FBS to 100 nM. Conjugated mRAPc (100 nM) and control agents (mRAPc alone, 100 nM, streptavidin-saporin alone, 100 nM, saporin alone, 1 mM) were cultured with confluent cells and cell death was assayed 48 hours later via MTT assay (Invitrogen, San Diego, Calif.).

For assay [3], the system named is wild-type CHO-K1 cells expressing LRP1. In words: Endocytosis-dependent toxicity assay (MTT). It is filed as cell-based, Chinese hamster. As to conditions: 100 nM, 48 hours. On the procedure: as §1
A further assay concerns the target T2, MAT CR12 (Homo sapiens, UniProt Q9Y5Y6).
T2 construct: termed MAT CR12 (ST14 CR12), amino acids 452-524; made in house; host or cells: E. coli BL21(DE3) CodonPlus-RIPL, pET30(+)a
T2 sequence (Q9Y5Y6 452-524): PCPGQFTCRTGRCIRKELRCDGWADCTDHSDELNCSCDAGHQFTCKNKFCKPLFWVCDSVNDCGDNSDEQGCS
The assay can be described thus: Solid phase binding assay. The note with it: 80 nM ligand, FIG. 7. The procedure: (§2) All expression constructs were sequenced to verify insert sequences and the junctions with the expression vector. Each plasmid was then used to transform BL21(DE3) CodonPlus-RIPL™ cells (Stratagene). Expression of the CR proteins was induced in logarithmic growth-phase cells grown in LB supplemented with 34 μg/mL chloramphenicol, 12.5 μg/mL tetracycline and 15 μg/mL kanamycin by addition of 2 mM IPTG, followed by reduction in incubator temperature to 32° C. and incubation for 4 hours with agitation at […]. Cells were pelleted and resuspended, at 3.5% of the initial culture volume in 10 mM Tris-HCl pH 8, 100 mM NaH2PO4, 8M Urea. Resuspended cells were then frozen in liquid nitrogen, rapidly thawed to 37° C. and sonicated for 10 seconds at an amplitude setting of 60 using a Cole-Parmer CP-130 ultrasonic processor connected to a 3 mm probe. This procedure was repeated three times to effect complete lysis of the cells. Lysates were clarified by spinning twice at 10,000×g in a Sorvall RC-5 centrifuge for 20 minutes at 15° C. Ni-NTA columns (Qiagen Superflow™, 1.5 mL packed bed) were used to purify the CR proteins. Briefly, the resin was equilibrated with two column volumes of lysis buffer. The clarified lysate was then supplemented to 20 mM with imidazole and incubated with the equilibrated Ni-NTA resin overnight at 4° C. The flow-through was discarded. Columns were washed once with one column volume of lysis buffer and then three times with one column volume of TBS pH 8 supplemented with 20 mM imidazole. CR-loaded beads were then removed from the column and CR proteins eluted by incubating at room temperature for 30 minutes with one column volume of the same buffer containing 200 mM imidazole. This step was repeated once and the eluates pooled. Eluted CR protein solutions were then supplemented to 2 M urea, 10 mM CaCl2 and 5 mM DTT. Purified, denatured CR protein solutions were transferred to 3,500 MWCO Slide-A-Lyzer™ (Pierce) cassettes and sequentially dialyzed against a 200-fold excess of 50 mM Tris-HCl pH 8.5, 10 mM CaCl2, 1 mM reduced glutathione, 0.5 mM oxidized glutathione at room temperature overnight and then against TBS supplemented with 5 mM CaCl2 at 4° C. overnight. Protein concentrations were determined by Bradford assay and purity confirmed by SDS-PAGE with Coomassie Brilliant Blue staining.
(§3) Purified, refolded CR protein (1 μg) was bound to Nunc Maxisorp™ 96-well plates in TBS pH 8 supplemented with 5 mM CaCl2 (TBSC) overnight at 4° C. Wells were washed with TBSC and then blocked with TBSC containing 2% bovine serum albumin (BSA). RAP ligands were then incubated with the immobilized receptor at a range of concentrations for 2 hours in the above blocking buffer supplemented with 0.05% Tween-20 at room temperature. Control wells contained no added ligand. As an additional control, to determine whether the absence of calcium affected binding, 10 mM EGTA was included in the incubation medium for some samples. Wells were washed with TBSTC and bound ligands detected with polyclonal anti-RAP (BP41/42, 1:1,000, BioMarin). Excess primary antibody was removed and wells washed before incubation with the secondary antibody, HRP-conjugated goat anti rabbit IgG (Bio-Rad). After washing, TMB substrate solutions (Bio-Rad) were added to detect HRP. Color development was stopped with 1N HCl. Absorption at 450 nm was measured with a microplate spectrophotometer (Molecular Devices). Data were plotted and Kd values derived by non-linear regression with the assumption of single-site binding (GraphPad Prism).
(§4) From the large number of CR pairs with unique combinations of amino acids at A, C, A′ and C′ within the calcium-binding loop of each CR, CR pairs or triplets were selected to test their binding to RAP d3 (FIG. 2). An additional pair derived from the FDC-8D6 protein was tested, designated 8D6 CR12, having the sequence ([…]) (SEQ ID NO: 91). […]

For assay [4], the target named is T1, MAT CR23. The assay can be described thus: Solid phase binding assay. As to conditions: 80 nM ligand, FIG. 7. The procedure: as §2, §3, §4
The next assay relates to the other CR pairs. The assay can be described thus: Binding at 80 nM to fourteen CR pairs or triplets (FIG. 7). Also on record: species or system human. As to conditions: 80 nM ligand. The procedure: RAP d3, MegaRAP1 d3, VRAP2 d3, MatRAP1 d3 and MatRAP2 d3 were each incubated at 80 nM concentrations with LRP1 CR3-5, LRP6 CR12, LRP6 CR23, LRP6 CR1-3, LRP2 CR89, LRP2 CR2728, LRP2 CR3031, LRP2 CR3435, LRP2 CR34-36, VLDLR CR78, VLDLR CR6-8, MAT CR12, MAT CR23 and MAT CR34. Samples were tested twice, in duplicate, and values combined. Means and standard deviations were then calculated. Blank values obtained from wells incubated in the absence of ligand were used to correct absorbance data.
Purified, refolded CR protein (1 μg) was bound to Nunc Maxisorp™ 96-well plates in TBS pH 8 supplemented with 5 mM CaCl2 (TBSC) overnight at 4° C. Wells were washed with TBSC and then blocked with TBSC containing 2% bovine serum albumin (BSA). RAP ligands were then incubated with the immobilized receptor at a range of concentrations for 2 hours in the above blocking buffer supplemented with 0.05% Tween-20 at room temperature. Control wells contained no added ligand. […] Wells were washed with TBSTC and bound ligands detected with polyclonal anti-RAP (BP41/42, 1:1,000, BioMarin). […] Absorption at 450 nm was measured with a microplate spectrophotometer (Molecular Devices). […]
The apparent dissociation constant for binding of VRAP1 d3 to VLDLR CR78 was determined to be 44±9 nM. […]

The target of the next assay is T3, VLDLR CR6-8 (Homo sapiens, UniProt P98155).
T3 construct: made in house; host or cells: E. coli BL21(DE3) CodonPlus-RIPL, pET30(+)a
In words: Solid phase binding assay. The note with it: 80 nM ligand, FIG. 7. On the procedure:
as §2, §3, §4

The target in a further assay is T4, VLDLR CR78 (Homo sapiens, UniProt P98155).
T4 construct: a CR pair from VLDLR (CR78); made in house; host or cells: E. coli BL21(DE3) CodonPlus-RIPL, pET30(+)a
In words: Solid phase binding assay. On the procedure: as §2, §3, §4

Numbering of substitutions follows the chain as printed. In names and notes the source's numbering stands.

B1: MatRAP1 N-42: MatRAP1 with 42 amino acids removed from the N-terminus (protein)
chain: FREELKHFGAKIERHNHYQKQLEIAHEWLRHAESVGDGERVSRSREKHALLEGRTKELGYTVKKHLQDLSGRISRAR
Regarding B1, the “increase in binding affinity over the full-length d3 variant” value with MAT CR23 [1] came to 3 fold.

B2: mRAPc: minimized RAP d3, E241C, A242G, R314G, I315C, disulfide-cyclized, N-terminal biotin-GGSGG (SEQ ID NO: 99) (peptide)
chain: CGFREELKHFEAKIEKHNHYQKQLEIAHEKLRHAESVGDGERVSRSREKHALLEGRTKELGYTVKKHLQDLSGGC
modifications: disulfide cyclization; N-terminal biotin-GGSGG
In the case of B2, the “effect on cell survival (in words)” value in assay [2] and in assay [3] was “no effect” each time.

B3: MatRAP2: RAP d3 variant selected on MAT CR34: S232P, E239G, E246G, E251L, K256P, I266T, A267V, H268R, K270P, H273Y, R287H, H290Y, K298R, S312F (protein)
chain: LDRLRRVSHQGYSTEAEFEEPRVIDLWDLAQPANLTDKGLEAFREGLKHFLAKIEPHNHYQKQLETVREPLRYAESVGDGERVSRSHEKYALLEGRTRELGYTVKKHLQDLFGRISRAR
B3: the “binding at 80 nM (in words)” value in the assay with MAT CR12 and with MAT CR23 [4] was “bound” in each case. Further, the “binding at 80 nM to the other CR pairs (in words)” value in the assay on the other CR pairs is on record as “not appreciably”.

B4: VRAP1 d3: RAP d3 variant selected on VLDLR CR6-8: R205S, E251R, K256L, K270E, R296L, G313D (protein)
chain: LDRLSRVSHQGYSTEAEFEEPRVIDLWDLAQSANLTDKELEAFREELKHFRAKIELHNHYQKQLEIAHEELRHAESVGDGERVSRSREKHALLEGLTKELGYTVKKHLQDLSDRISRAR
On to B4, for which the “binding at 80 nM (in words)” value with VLDLR CR6-8 is listed as “bound”; with VLDLR CR78 (80 nM ligand, FIG. 7) it was “bound”. Also, the Kd with VLDLR CR78 (solid-phase assay, VLDLR CR78, read-out: apparent dissociation constant (Kd)) came to 44 ± 9 nM.

B5: MatRAP1: RAP d3 variant selected on MAT CR23: E251G, K256R, K270W (protein)
chain: B4 chain with S5R, R51G, L56R, E70W, L96R, D113G
Take B5: the “binding at 80 nM (in words)” value with MAT CR12 and in the assay with MAT CR23 [4] was “bound” throughout. Also, the “binding at 80 nM to the other CR pairs (in words)” value in the assay on the other CR pairs is “not appreciably”.
